Reference: US20250136694A1 (HARBOUR BIOMED SHANGHAI, published 2025)
Substitutions are numbered along the chain they refer to.

T1: cynomolgus monkey B7-H4 on the cell surface (cynomolgus monkey, UniProt A0A2K5U6P5 25-282)
T1 construct: whole, on cells; also called cyno B7-H4; CHO-K1/cynoB7-H4
T1 sequence: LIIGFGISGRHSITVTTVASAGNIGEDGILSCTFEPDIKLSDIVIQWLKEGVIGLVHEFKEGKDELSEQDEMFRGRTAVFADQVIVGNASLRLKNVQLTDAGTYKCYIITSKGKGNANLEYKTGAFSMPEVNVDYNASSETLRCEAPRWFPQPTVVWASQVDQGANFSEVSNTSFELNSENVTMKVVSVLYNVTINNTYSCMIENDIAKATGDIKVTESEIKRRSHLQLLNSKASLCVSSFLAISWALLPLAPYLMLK

T2: human B7-H4 on the cell surface (human, UniProt Q7Z7D3 25-282)
T2 construct: whole, on cells; also called hu B7-H4; CHO-K1/huB7-H4
T2 sequence (looked up): T1 sequence with I53L, L242F, A252S

T3: mouse B7-H4 on the cell surface (mouse, UniProt Q7TSP5 25-257)
T3 construct: whole, on cells; also called m B7-H4; CHO-K1/mB7-H4
T3 sequence (looked up): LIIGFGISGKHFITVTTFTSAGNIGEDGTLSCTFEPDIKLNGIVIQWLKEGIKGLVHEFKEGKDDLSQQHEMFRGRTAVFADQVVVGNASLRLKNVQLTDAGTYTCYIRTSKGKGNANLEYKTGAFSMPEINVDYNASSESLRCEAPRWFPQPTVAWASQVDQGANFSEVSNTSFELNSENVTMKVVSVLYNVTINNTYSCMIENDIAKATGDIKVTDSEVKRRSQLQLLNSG

T4: human B7-H4 (protein in solution, BLI) (human, UniProt Q7Z7D3 25-258, limits assumed)
T4 sequence (looked up): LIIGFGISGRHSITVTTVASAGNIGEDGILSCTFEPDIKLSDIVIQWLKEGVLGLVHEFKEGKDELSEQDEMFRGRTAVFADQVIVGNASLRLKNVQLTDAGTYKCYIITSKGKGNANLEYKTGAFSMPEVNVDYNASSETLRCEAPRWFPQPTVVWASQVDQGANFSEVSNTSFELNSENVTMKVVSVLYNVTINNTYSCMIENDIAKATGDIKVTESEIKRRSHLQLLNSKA

B1: PR006391 (bispecific antibody, human IgG1, lambda)
light: QAVVTQEPSLTVSPGGTVTLTCRSSTGAVTTSNYANWVQQKPGQAPRGLIGGTNKRAPWTPARFSGSLLGDKAALTLLGAQPEDEAEYFCALWYSNLWVFGGGTKLTVLGQPKAAPSVTLFPPSSEELQANKATLVCLISDFYPGAVTVAWKADSSPVKAGVETTTPSKQSNNKYAASSYLSLTPEQWKSHRSYSCQVTHEGSTVEKTVAPTECS
heavy: EVQLVESGGGLVQPGGSLKLSCAASGFTFSTYAMNWVRQASGKGLEWVGRIRSKYNNYATYYADSVKDRFTISRDDSKNTAYLQMNSLKTEDTAVYYCTRHGNFGNSYVSWFAYWGQGTLVTVSSASTKGPSVFPLAPSSKSTSGGTAALGCLVKDYFPEPVTVSWNSGALTSGVHTFPAVLQSSGLYSLSSVVTVPSSSLGTQTYICNVNHKPSNTKVDKKVEPKSCDKTHTCPPCPAPEAAGAPSVFLFPPKPKDTLMISRTPEVTCVVVDVSHEDPEVKFNWYVDGVEVHNAKTKPREEQYNSTYRVVSVLTVLHQDWLNGKEYKCKVSNKALPAPIEKTISKAKGQPREPQVYTLPPCREEMTKNQVSLWCLVKGFYPSDIAVEWESNGQPENNYKTTPPVLDSDGSFFLYSKLTVDKSRWQQGNVFSCSVMHEALHNHYTQKSLSLSPGK
chain: EVQLVESGGGLVQPGGSLRLSCAASGFAFSNYWMHWARQVPGKGRVWISRISGDSRSTSYADSVKGRFTISRDNAKNMVYLQMNNLRAEDTAVYYCARDRFGDDYYYGMNVWGQGTTVTVSSGGGGSGGGGSGGGGSEVQLVESGGGLVQPGGSLRLSCAASGFAFSNYWMHWARQVPGKGRVWISRISGDSRSTSYADSVKGRFTISRDNAKNMVYLQMNNLRAEDTAVYYCARDRFGDDYYYGMNVWGQGTTVTVSSASEPKSSDKTHTCPPCPAPEAAGAPSVFLFPPKPKDTLMISRTPEVTCVVVDVSHEDPEVKFNWYVDGVEVHNAKTKPREEQYNSTYRVVSVLTVLHQDWLNGKEYKCKVSNKALPAPIEKTISKAKGQPREPQVCTLPPSREEMTKNQVSLSCAVKGFYPSDIAVEWESNGQPENNYKTTPPVLDSDGSFFLVSKLTVDKSRWQQGNVFSCSVMHEALHNHYTQKSLSLSPGK
notes: also called B7-H4xCD3 bispecific antibody; PR003886 Fab + bivalent PR007440
B2: PR005885 (bispecific antibody, human IgG1, lambda)
light: B1 light
heavy: B1 heavy
scFv: EIVMTQSPASLSVSPGERATLSCRASQSVSSNLAWYQQKPGQAPRLLIYGASTRATGIPARVSGGGSGTEFTLTISSLQSEDFAVYYCQQYKNWPFTFGPGTKLEIKGGGGSGGGGSGGGGSGGGGSQVQLVQSGAEVKKPGSSMRVSCKASEDTFSSYAISWVRQAPGQGLEWMGGTAPIFGTTNYAQKFQGRVTITADKSTSTAYMELSSLRSEDTAVYYCARGGPYFDYWGQGTLVTVSSASEPKSSDKTHTCPPCPAPEAAGAPSVFLFPPKPKDTLMISRTPEVTCVVVDVSHEDPEVKFNWYVDGVEVHNAKTKPREEQYNSTYRVVSVLTVLHQDWLNGKEYKCKVSNKALPAPIEKTISKAKGQPREPQVCTLPPSREEMTKNQVSLSCAVKGFYPSDIAVEWESNGQPENNYKTTPPVLDSDGSFFLVSKLTVDKSRWQQGNVFSCSVMHEALHNHYTQKSLSLSPGK
notes: Chain-3 is the VL-linker-VH scFv of anti-B7-H4 antibody PR003366 fused to hinge-CH2-CH3 (hole); also called B7-H4xCD3 bispecific antibody; 1+1 Fab-Fc-scFv

Columns and labels:
[1] = target: T1, cynomolgus monkey B7-H4 on the cell …; assay: FACS, CHO-K1/cyno B7-H4 cells
Method: (§1) This example is intended to investigate the in vitro binding activity of the CD3 bispecific antibodies of B7-H4 for human, cynomolgus monkey, and mouse B7-H4. Antibody binding experiments at the cellular level were conducted using a CHO-K1 cell strain overexpressing human B7-H4 (CHO-K1/huB7-H4, Harbour BioMed), a CHO-K1 cell strain overexpressing cynomolgus monkey B7-H4 (CHO-K1/cynoB7-H4, Harbour BioMed), and a CHO-K1 cell strain overexpressing mouse B7-H4 (CHO-K1/mB7-H4, Harbour BioMed). Briefly, cells were digested and resuspended in PBS containing 2% FBS, and the cell density was adjusted to 1×10⁶ cells/mL. The cells were seeded in a 96-well V-bottom plate (Corning, Cat #3894) at 100 μL/well, followed by the addition of test antibodies 3-fold serially diluted at a concentration that was 2 times the final concentration, each at 100 μL/well. The cells were incubated away from light at 4° C. for 2 h. Then, the cells in each well were rinsed twice with 100 μL of pre-cooled PBS and centrifuged at 500 g at 4° C. for 5 min, and then the supernatant was discarded. […] The cells in each well were then rinsed twice with 100 μL of pre-cooled PBS and centrifuged at 500 g at 4° C. for 5 min, and then the supernatant was discarded. Finally, the cells in each well were resuspended in 200 μL of pre-cooled PBS, and the fluorescence signal values were read using ACEA Novocyte3000.

[2] = target: T2, human B7-H4 on the cell surface; assay: FACS, MDA-MB-468 cells
Method: (§2) Antibody binding experiments at the cellular level were performed using tumor cells endogenously expressing B7-H4 or primary T cells expressing CD3. MDA-MB-468 cells or human T cells were resuspended in PBS containing 2% BSA. The cell density was adjusted to 1×10⁶ cells/mL. The cells were seeded in a 96-well V-bottom plate (Corning, #3894) at 100 μL/well, followed by the addition of test antibodies 3-fold serially diluted at a concentration that was 2 times the final concentration, each at 100 μL/well. The cells were incubated away from light at 4° C. for 2 h. Then, the cells in each well were rinsed twice with 100 μL of pre-cooled PBS containing 2% BSA and centrifuged at 500 g at 4° C. for 5 min, and then the supernatant was discarded. […] The cells in each well were rinsed twice with 100 μL of pre-cooled PBS containing 2% BSA and centrifuged at 500 g at 4° C. for 5 min, and then the supernatant was discarded. Finally, the cells in each well were resuspended with 200 μL of pre-cooled PBS containing 2% BSA, and the fluorescence signal values were read using an ACEA Novocyte3000 flow cytometer.
The results are shown in Tables 6-1, 6-2, and 6-3 and FIGS. 5A-5F.

[3] = target: T3, mouse B7-H4 on the cell surface; assay: FACS, CHO-K1/m B7-H4 cells
[4] = target: T2, human B7-H4 on the cell surface; assay: FACS, CHO-K1/hu B7-H4 cells
Method: as §1

[5] = target: T4, human B7-H4 (protein in solution, BLI); assay: BLI (Octet), antibody captured on AHC sensor, antigen in solution
Method: The binding kinetics between the antigen and the antibody was analyzed by the biolayer interferometry (BLI) technique using an Octet Red 96e molecular interaction analyzer (Fortebio).
When the affinity of the antigen for the antibody was determined, the rotation speed of the sensor was set at 1000 rpm/min. […] Finally, the AHC sensor was immersed in a 10 mM glycine-hydrochloric acid solution at pH 1.5 for regeneration to elute the proteins bound to the sensor.
When data analysis was performed using Octet Data Analysis software (Fortebio, version 11.0), 0 nM was taken as a reference well, and reference subtraction was performed; the “1:1 Global fitting” method was selected to fit the data, and the kinetics parameters of the binding of antigens to antigen-binding proteins were calculated, with kₒₙ(1/Ms) values, kdis(1/s) values, and KD(M) values obtained (see Table 3 and FIG. 2).

[6] = target: T2, human B7-H4 on the cell surface; assay: FACS, MDA-MB-468 cells; remark: listed apart in the source
Method: as §2

[7] = target: T3, mouse B7-H4 on the cell surface; assay: FACS, CHO-K1/m B7-H4 cells; remark: listed apart in the source
Method: as §1

Binder	EC50 [1] [nM]	EC50 [2] [nM]	binding result [3]	EC50 [4] [nM]	Kd [5] [nM]	koff [5] [s⁻¹]	kon [5] [M⁻¹ s⁻¹]	EC50 [6] [nM]	EC50 [7] [nM]
B1	3.79	19.1	no binding	3.54	3.75	0.000339	90400	15.8	
B2	5.92			4.79				92.6	37
